Laboratory results: patent US20230357429A1 (JANUX THERAPEUTICS, published 2023)
Where a chain is given by its changes, count along the chain named. Names may count otherwise. Read-outs that look alike come from different tables or passages of the source. Where no end group is shown, it is not given here.

Assays:
[1] = molecular target: T1, Human TROP2 ECD (31-274 AA) (human, UniProt P09758 31-274, biotinylated); assay: ELISA; biotinylated TROP2 on neutravidin plates, PC titrated, HRP secondary
T1 construct: also called biotinylated TROP2; TROP2-biotin
T1 sequence: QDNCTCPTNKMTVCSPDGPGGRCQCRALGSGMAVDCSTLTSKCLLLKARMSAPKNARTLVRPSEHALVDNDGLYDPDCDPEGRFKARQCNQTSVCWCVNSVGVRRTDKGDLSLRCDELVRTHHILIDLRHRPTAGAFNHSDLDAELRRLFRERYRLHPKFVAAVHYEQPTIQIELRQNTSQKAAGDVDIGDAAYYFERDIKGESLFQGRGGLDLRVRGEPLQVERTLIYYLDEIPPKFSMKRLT
Method: (§1) TROP2 TCEs and masked polypeptide complexes (PCs) were evaluated for their ability to bind TROP2 and CD3 by ELISA. […] The TCE or PC constructs diluted in buffer were then added to the antigen coated plates. Binding was measured using a standard horse radish peroxidase secondary antibody. The concentration of TCE or PC required to achieve 50% maximal signal (EC₅₀) was calculated.

CD3 = molecular target: T2, CD3 (human, UniProt P07766 23-126, limits assumed, biotinylated); assay: ELISA; biotinylated CD3 on neutravidin plates, PC titrated, HRP secondary
T2 construct: also called biotinylated CD3; CD3-biotin
Method: as §1

Human TROP2 Full length = molecular target: T3, Human TROP2 Full length (human, UniProt P09758 31-323); assay: cell-based or functional assay
T3 sequence: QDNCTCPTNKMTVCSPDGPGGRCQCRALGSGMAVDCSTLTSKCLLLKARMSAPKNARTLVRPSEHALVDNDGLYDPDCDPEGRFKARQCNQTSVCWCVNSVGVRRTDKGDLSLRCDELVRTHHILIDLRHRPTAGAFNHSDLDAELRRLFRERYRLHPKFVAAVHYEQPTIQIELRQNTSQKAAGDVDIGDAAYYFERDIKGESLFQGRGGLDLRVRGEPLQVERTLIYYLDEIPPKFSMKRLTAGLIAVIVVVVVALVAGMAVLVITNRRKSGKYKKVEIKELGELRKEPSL

Cyno TROP2 Full length = molecular target: T4, Cyno TROP2 Full length (cynomolgus monkey, UniProt P09758 31-323 (human entry)); assay: cell-based or functional assay
T4 chain: T3 sequence with M32V, S63N, I200V, M262V, T268S

TBD-21 (HC F108A) [2] = molecular target: T5, TBD-21 (HC F108A); assay: competition ELISA, peptide vs Fab binding to captured biotin-TROP2
T5 construct: Fab; also called HC F108A mutant
Method: (§2) ELISA-based competitive inhibition studies were used to test the ability of each peptide to inhibit the TBDs from binding to TROP2. […] Inhibitory peptides were titrated in a dilution series and pre-incubated with a constant concentration of antibody. Inhibitory peptide and antibody mixtures were then incubated on the antigen captured plates. A horseradish peroxidase conjugate secondary antibody was then used to detect the antibody binding to the plate-bound antigen. The ELISA signal was plotted versus log-scale peptide concentration. A dose dependent decrease of signal was indicative of peptides that compete for antibody binding to the cognate antigen. Graphpad Prism software was used to calculate the inhibitory concentrations of peptide required to achieve 50% maximal signal (IC₅₀s).

TBD-11 (HC R98A) [3] = molecular target: T6, TBD-11 (HC R98A); assay: as above
T6 construct: Fab; also called HC R98A mutant
Method: as §2

TBD-22 (HC D109A) [4] = molecular target: T7, TBD-22 (HC D109A); assay: as above
T7 construct: Fab; also called HC D109A mutant
Method: as §2

TBD-17 (HC S104A) [5] = molecular target: T8, TBD-17 (HC S104A); assay: as above
T8 construct: Fab; also called HC S104A mutant
Method: as §2

TBD-21 (HC F108A) [6] = molecular target: T5, TBD-21 (HC F108A); assay: as above; remark: listed apart in the source
Method: as §2

TBD-11 (HC R98A) [7] = molecular target: T6, TBD-11 (HC R98A); assay: as above; remark: listed apart in the source
Method: as §2

TBD-22 (HC D109A) [8] = molecular target: T7, TBD-22 (HC D109A); assay: as above; remark: listed apart in the source
Method: as §2

TBD-17 (HC S104A) [9] = molecular target: T8, TBD-17 (HC S104A); assay: as above; remark: listed apart in the source
Method: as §2

T7 sequence (VH, as listed by the source, chain 1 of 2, one chain of several): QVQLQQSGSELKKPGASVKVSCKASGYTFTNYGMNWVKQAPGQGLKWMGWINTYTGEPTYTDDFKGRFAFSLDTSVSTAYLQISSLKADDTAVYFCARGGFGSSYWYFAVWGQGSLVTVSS
T2 sequence (P07766 23-126 limits assumed): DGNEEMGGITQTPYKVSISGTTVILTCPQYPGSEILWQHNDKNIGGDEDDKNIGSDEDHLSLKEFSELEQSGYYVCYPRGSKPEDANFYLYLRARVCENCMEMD
T6 sequence (VH, as listed by the source, chain 1 of 2, one chain of several): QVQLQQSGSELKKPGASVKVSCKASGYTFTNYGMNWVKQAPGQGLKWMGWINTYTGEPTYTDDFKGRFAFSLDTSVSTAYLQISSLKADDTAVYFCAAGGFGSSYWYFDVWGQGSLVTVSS
T8 sequence (VH, as listed by the source, chain 1 of 2, one chain of several): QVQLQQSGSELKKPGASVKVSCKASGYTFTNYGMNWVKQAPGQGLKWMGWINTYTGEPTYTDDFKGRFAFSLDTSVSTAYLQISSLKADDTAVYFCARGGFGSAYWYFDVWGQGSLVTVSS

B1: PC-34 (bispecific antibody)
light: GGVDFCALYHWPICYQGGGGSGGLSGRSDAGSPLGLAGSGGSDIQLTQSPSSLSASVGDRVSITCKASQDVSIAVAWYQQKPGKAPKLLIYSASYRYTGVPDRFSGSGSGTDFTLTISSLQPEDFAVYYCQQHYITPLTFGAGTKVEIKRTVAAPSVFIFPPSDEQLKSGTASVVCLLNNFYPREAKVQWKVDNALQSGNSQESVTEQDSKDSTYSLSSTLTLSKADYEKHKVYACEVTHQGLSSPVTKSFNRGEC
heavy: not shown
notes: Masked polypeptide complex: anti-TROP2 F108A, anti-CD3 H101A; CD3 mask …
EC50 [1]: 828 nM | EC50 (CD3): 283 nM | H292 Cytotoxicity EC50 (pM) (Human TROP2 Full length): > 100000 pM | CyTROP2 HEK293 EC50 (pM) (Cyno TROP2 Full length): 16500 pM

B2: PC-35 (bispecific antibody)
light: B1 light
heavy: not shown
notes: as for B1
EC50 [1]: 2080 nM | EC50 (CD3): 30 nM | H292 Cytotoxicity EC50 (pM) (Human TROP2 Full length): > 100000 pM | HCT116 Cytotoxicity EC50 (pM) (Human TROP2 Full length): > 100000 pM | CyTROP2 HEK293 EC50 (pM) (Cyno TROP2 Full length): > 100000 pM

B3: PC-36 (bispecific antibody)
light: B1 light
heavy: not shown
notes: Masked polypeptide complex: anti-TROP2 F108A, anti-CD3 F104A
EC50 [1]: 1470 nM | EC50 (CD3): 2920 nM | H292 Cytotoxicity EC50 (pM) (Human TROP2 Full length): > 100000 pM | CyTROP2 HEK293 EC50 (pM) (Cyno TROP2 Full length): > 870000 pM

B4: PC-37 (bispecific antibody)
light: B1 light
heavy: not shown
notes: Masked polypeptide complex: anti-TROP2 F108A, anti-CD3 F240A; CD3 mask …
EC50 [1]: 1510 nM | EC50 (CD3): 1300 nM | H292 Cytotoxicity EC50 (pM) (Human TROP2 Full length): > 100000 pM | HCT116 Cytotoxicity EC50 (pM) (Human TROP2 Full length): > 100000 pM | CyTROP2 HEK293 EC50 (pM) (Cyno TROP2 Full length): > 100000 pM

B5: PC-38 (bispecific antibody)
light: B1 light
heavy: not shown
notes: as for B4
EC50 [1]: 3020 nM | EC50 (CD3): 77.6 nM | H292 Cytotoxicity EC50 (pM) (Human TROP2 Full length): > 100000 pM

B6: PC-44 (bispecific antibody)
light: B1 light
heavy: not shown
notes: Masked polypeptide complex: anti-TROP2 F108A, anti-CD3 N30Q, I109V, G172A, V231A; CD3 mask …
EC50 [1]: 1140 nM | EC50 (CD3): 77.3 nM | H292 Cytotoxicity EC50 (pM) (Human TROP2 Full length): 51000 pM

B7: PC-45 (bispecific antibody)
light: B1 light
heavy: not shown
notes: as for B6
EC50 [1]: 4010 nM | EC50 (CD3): 97 nM | H292 Cytotoxicity EC50 (pM) (Human TROP2 Full length): > 100000 pM

B8: PC-46 (bispecific antibody)
light: B1 light
heavy: not shown
notes: Masked polypeptide complex: anti-TROP2 F108A, anti-CD3 N30Q, I109V, G172A, V231A
EC50 [1]: 2550 nM | EC50 (CD3): 556 nM | H292 Cytotoxicity EC50 (pM) (Human TROP2 Full length): > 100000 pM | CyTROP2 HEK293 EC50 (pM) (Cyno TROP2 Full length): 45600 pM

B9: PC-50 (bispecific antibody)
light: B1 light
heavy: not shown
notes: Masked polypeptide complex: anti-TROP2 F108A, anti-CD3 H101A
EC50 [1]: 1220 nM | EC50 (CD3): 454 nM | H292 Cytotoxicity EC50 (pM) (Human TROP2 Full length): > 100000 pM | CyTROP2 HEK293 EC50 (pM) (Cyno TROP2 Full length): > 100000 pM

B10: PC-51 (bispecific antibody)
light: B1 light
heavy: not shown
notes: Masked polypeptide complex: anti-TROP2 F108A, anti-CD3 L232A
EC50 [1]: 1160 nM | EC50 (CD3): 410 nM | H292 Cytotoxicity EC50 (pM) (Human TROP2 Full length): > 100000 pM | CyTROP2 HEK293 EC50 (pM) (Cyno TROP2 Full length): 79300 pM

B11: PC-52 (bispecific antibody)
light: B1 light
heavy: not shown
notes: Masked polypeptide complex: anti-TROP2 F108A, anti-CD3 N236A
EC50 [1]: 1210 nM | EC50 (CD3): 242 nM | H292 Cytotoxicity EC50 (pM) (Human TROP2 Full length): 98300 pM | CyTROP2 HEK293 EC50 (pM) (Cyno TROP2 Full length): 37700 pM

B12: PC-39 (bispecific antibody)
light: B1 light
heavy: EVQLVESGGGLVQPGGSLRLSCAASGSTFYTAVMGWVRQAPGKGLEWVAAIRWTALTTSYADSVKGRFTISRDGAKTTLYLQMNSLRPEDTAVYYCAARGTLGLFTTADSYDYWGQGTLVTVSSGGGGSGGGSGGYLCGPDGDETLACYGGGGSGGGLSGRSDAGSPLGLAGSGGGSEVQLVESGGGLVQPGGSLKLSCAASGFTFNKYAMNWVRQASGKGLEWVGRIRSKYNNYATYYADSVKDRFTISRDDSKNTAYLQMNSLKTEDTAVYYCVRHGNFGNSYISYWAYWGQGTLVTVSSGGGGSGGGGSGGGGSQTVVTQEPSFSVSPGGTVTLTCRSSTGAVTSGNYANWVQQTPGQAPRGLIGGTKFLAPGVPDRFSGSILGNKAALTITGAQADDESDYYCVLWYSNRWVFGGGTKLTVLGGGGSQVQLQQSGSELKKPGASVKVSCKASGYTFTNYGMNWVKQAPGQGLKWMGWINTYTGEPTYTDDFKGRFAFSLDTSVSTAYLQISSLKADDTAVYFCARGGFGSSYWYADVWGQGSLVTVSSASTKGPSVFPLAPSSKSTSGGTAALGCLVKDYFPEPVTVSWNSGALTSGVHTFPAVLQSSGLYSLSSVVTVPSSSLGTQTYICNVNHKPSNTKVDKKVEPKSC
notes: Masked polypeptide complex: anti-TROP2 F108A, anti-CD3 with P41S, A49G, N87S ; E227D; CD3 mask YLCGPDGDETLACY
EC50 [1]: 1090 nM | EC50 (CD3): 136 nM | H292 Cytotoxicity EC50 (pM) (Human TROP2 Full length): 13700 pM | HCT116 Cytotoxicity EC50 (pM) (Human TROP2 Full length): > 100000 pM | CyTROP2 HEK293 EC50 (pM) (Cyno TROP2 Full length): 665 pM

B13: PC-41 (bispecific antibody)
light: B1 light
heavy: B12 heavy with Y136V, L137Y, D141E, G142F, T145S, L146V, A147G, Y149A
notes: Masked polypeptide complex: anti-TROP2 F108A, anti-CD3 with P41S, A49G, N87S ; E227D
EC50 [1]: 1380 nM | EC50 (CD3): 230 nM | H292 Cytotoxicity EC50 (pM) (Human TROP2 Full length): 47000 pM | CyTROP2 HEK293 EC50 (pM) (Cyno TROP2 Full length): 5130 pM

B14: PC-42 (bispecific antibody)
light: B1 light
heavy: EVQLVESGGGLVQPGGSLRLSCAASGSTFYTAVMGWVRQAPGKGLEWVAAIRWTALTTSYADSVKGRFTISRDGAKTTLYLQMNSLRPEDTAVYYCAARGTLGLFTTADSYDYWGQGTLVTVSSGGGGSGGGSGGASQCLGPEWEVCPYGGGGSGGGLSGRSDAGSPLGLAGSGGGSEVQLVESGGGLVQPGGSLKLSCAASGFTFNKYAMNWVRQASGKGLEWVGRIRSKYNNYATYYADSVKDRFTISRDDSKNTAYLQMNSLKTEDTAVYYCVRHGNFGNSYISYWAYWGQGTLVTVSSGGGGSGGGGSGGGGSQTVVTQEPSFSVSPGGTVTLTCRSSTGAVTSGNYANWVQQTPGQAPRGLIGGTKFLAPGVPDRFSGSILGNKAALTITGAQADDESDYYCVLWYSNRWVFGGGTKLTVLGGGGSQVQLQQSGSELKKPGASVKVSCKASGYTFTNYGMNWVKQAPGQGLKWMGWINTYTGEPTYTDDFKGRFAFSLDTSVSTAYLQISSLKADDTAVYFCARGGFGSSYWYADVWGQGSLVTVSSASTKGPSVFPLAPSSKSTSGGTAALGCLVKDYFPEPVTVSWNSGALTSGVHTFPAVLQSSGLYSLSSVVTVPSSSLGTQTYICNVNHKPSNTKVDKKVEPKSC
notes: as for B13
EC50 [1]: 630 nM | EC50 (CD3): 60.2 nM | H292 Cytotoxicity EC50 (pM) (Human TROP2 Full length): 12200 pM

EDFCKLYNWPICYQ (cysteine pairing not given here; also: biotinylated, site not given here) [Peptide-7]
IC50 (TBD-21 (HC F108A) [2]): 4010 nM | IC50 (TBD-11 (HC R98A) [3]): 1000 nM | IC50 (TBD-22 (HC D109A) [4]): 130 nM | IC50 (TBD-17 (HC S104A) [5]): 3770 nM

VDFCGLYHWPICYQ (cysteine pairing not given here; also: biotinylated, site not given here) [Peptide-8]
IC50 (TBD-21 (HC F108A) [2]): 610 nM | IC50 (TBD-11 (HC R98A) [3]): 300 nM | IC50 (TBD-22 (HC D109A) [4]): 20 nM | IC50 (TBD-17 (HC S104A) [5]): 890 nM | IC50 (TBD-21 (HC F108A) [6]): 1010 nM | IC50 (TBD-11 (HC R98A) [7]): 620 nM | IC50 (TBD-22 (HC D109A) [8]): 80 nM | IC50 (TBD-17 (HC S104A) [9]): 870 nM
